Kd and ATP hydrolysis rate with nucleosome as activator (1 μM SMARCAD1, 1 μM nucleosome; NADH-coupled assay) data for six molecules are collected here from publication PMC11742319, “Phosphorylation regulates the chromatin remodeler SMARCAD1 in nucleosome binding, ATP hydrolysis, and histone exchange”.

Positions count from the first letter of the chain named.

Series [1] addresses (H3-H4)2 tetramer (fluorescently labeled with Alexa Fluor 488 on H4 at E63C) (human) (UniProt P68431). The experiment in a line: fluorescence polarisation; 5 nM Alexa Fluor 488-labeled H2A-H2B dimer or (H3-H4)2 tetramer, SMARCAD1 titrated 0-2500 nM; 2 mM DTT, 10% glycerol, 50 mM HEPES pH 7.5, 0.01% CHAPS, 0.01% NP-40, 300 mM KCl; room temperature, 30 min; hyperbolic fit. (In general: Fluorescence polarisation rises when a labelled molecule tumbles more slowly, as on binding a larger partner.)

In series [2] the target is nucleosome: histone octamer with Alexa Fluor 488 on histone H4 E63C assembled onto a 165 bp DNA (human) (UniProt P04908).
For series [3], the target named is T1, Δ350 SMARCAD1, dephosphorylated V974A;del1-350 (human) (UniProt Q9H4L7).
T1 sequence: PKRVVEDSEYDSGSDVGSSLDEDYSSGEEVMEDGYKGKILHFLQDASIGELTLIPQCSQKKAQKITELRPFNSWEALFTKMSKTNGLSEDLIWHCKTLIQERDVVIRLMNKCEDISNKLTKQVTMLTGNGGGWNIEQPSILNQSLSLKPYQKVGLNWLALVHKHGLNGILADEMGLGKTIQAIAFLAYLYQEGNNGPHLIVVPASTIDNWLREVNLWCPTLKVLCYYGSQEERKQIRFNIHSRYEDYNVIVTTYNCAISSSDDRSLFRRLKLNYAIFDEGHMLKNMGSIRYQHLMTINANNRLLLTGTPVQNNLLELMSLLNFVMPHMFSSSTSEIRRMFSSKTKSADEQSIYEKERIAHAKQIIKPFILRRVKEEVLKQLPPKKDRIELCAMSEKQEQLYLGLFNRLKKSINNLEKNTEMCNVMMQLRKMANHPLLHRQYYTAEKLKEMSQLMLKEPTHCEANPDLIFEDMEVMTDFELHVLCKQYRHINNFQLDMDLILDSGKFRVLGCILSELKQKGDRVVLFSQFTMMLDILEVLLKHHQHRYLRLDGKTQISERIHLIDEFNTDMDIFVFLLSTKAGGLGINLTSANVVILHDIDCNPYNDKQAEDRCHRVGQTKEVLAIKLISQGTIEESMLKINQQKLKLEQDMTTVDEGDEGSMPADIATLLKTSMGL
Briefly: fluorescence polarization. The conditions noted are these: FP: 50 mM HEPES pH 7.5, 2 mM DTT, 10% glycerol, 0.01% CHAPS, 0.01% NP-40, no added salt stated, room temperature 30 min; 10 nM nucleosome or DNA, 0-5 uM ….

Series [4] concerns the target T2, 23A SMARCAD1, dephosphorylated (human) (UniProt Q9H4L7).
T2 sequence: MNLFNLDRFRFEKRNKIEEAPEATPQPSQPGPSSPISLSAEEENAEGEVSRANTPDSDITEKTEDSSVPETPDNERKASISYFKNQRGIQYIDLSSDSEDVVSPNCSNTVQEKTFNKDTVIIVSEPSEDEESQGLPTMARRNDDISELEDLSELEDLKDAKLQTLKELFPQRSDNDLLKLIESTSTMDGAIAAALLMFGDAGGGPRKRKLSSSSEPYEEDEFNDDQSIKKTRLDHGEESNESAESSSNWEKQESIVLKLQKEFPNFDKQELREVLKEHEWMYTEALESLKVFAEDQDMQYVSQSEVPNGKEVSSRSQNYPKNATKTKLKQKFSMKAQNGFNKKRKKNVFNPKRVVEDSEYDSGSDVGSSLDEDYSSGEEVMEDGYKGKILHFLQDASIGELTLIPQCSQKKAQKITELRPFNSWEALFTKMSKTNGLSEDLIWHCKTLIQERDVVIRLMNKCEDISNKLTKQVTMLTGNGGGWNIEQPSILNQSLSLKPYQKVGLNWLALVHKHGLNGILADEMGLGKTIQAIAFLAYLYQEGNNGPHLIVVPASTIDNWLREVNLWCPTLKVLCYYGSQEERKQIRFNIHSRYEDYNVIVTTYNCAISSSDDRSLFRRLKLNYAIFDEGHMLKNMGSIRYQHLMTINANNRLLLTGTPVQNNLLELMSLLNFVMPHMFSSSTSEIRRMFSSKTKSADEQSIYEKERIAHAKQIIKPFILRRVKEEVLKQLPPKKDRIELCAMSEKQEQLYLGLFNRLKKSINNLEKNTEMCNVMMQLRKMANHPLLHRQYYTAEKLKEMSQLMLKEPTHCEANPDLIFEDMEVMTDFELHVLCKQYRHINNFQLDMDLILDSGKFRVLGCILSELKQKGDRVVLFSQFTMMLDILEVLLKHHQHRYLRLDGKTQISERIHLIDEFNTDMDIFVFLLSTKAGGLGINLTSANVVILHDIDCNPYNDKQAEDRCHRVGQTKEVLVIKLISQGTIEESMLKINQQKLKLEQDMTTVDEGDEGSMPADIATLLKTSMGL
The experiment in a line: fluorescence polarization. As to conditions: FP: 50 mM HEPES pH 7.5, 2 mM DTT, 10% glycerol, 0.01% CHAPS, 0.01% NP-40, no added salt stated, room temperature 30 min, 10 nM nucleosome or DNA, 0-5 uM ….

Series [5] has as its target T3, 23A SMARCAD1, phosphorylated (human) (UniProt Q9H4L7).
T3 sequence: T2 sequence
The experiment in a line: fluorescence polarization. As to conditions: FP: 50 mM HEPES pH 7.5, 2 mM DTT, 10% glycerol, 0.01% CHAPS, 0.01% NP-40, no added salt stated, room temperature 30 min, 10 nM nucleosome or DNA, 0-5 uM ….

The target of series [6] is nucleosome: histone octamer with Alexa Fluor 488 on histone H4 E63C assembled onto a 165 bp DNA (human) (UniProt P04908). Briefly: fluorescence polarisation; 10 nM Alexa Fluor 488-labeled nucleosome (165 bp DNA), SMARCAD1 titrated 0-5 μM; 2 mM DTT, 10% glycerol, 50 mM HEPES pH 7.5, 0.01% CHAPS, 0.01% NP-40; room temperature, 30 min; hyperbolic fit.
For series [7], the target named is T4, WT SMARCAD1, dephosphorylated (human, UniProt Q9H4L7 1-1026, V974A).
T4 sequence: T2 sequence with V974A
The experiment in a line: fluorescence polarization; dephosphorylated (CIP); FP: 50 mM HEPES pH 7.5, 2 mM DTT, 10% glycerol, 0.01% CHAPS, 0.01% NP-40, no added salt stated, room temperature 30 min; 10 nM nucleosome or DNA, 0-5 uM SMARCAD1. The conditions noted are these: protein: recombinant; tags: 6xHis (C- or N-terminal); label: Alexa Fluor 488 and Alexa Fluor 647 (labeled PCR primers); blunt.

The target in series [8] is T5, Δ350 SMARCAD1, dephosphorylated (human, UniProt Q9H4L7 351-1026, V974A;del1-350).
T5 sequence: T1 sequence
The description is as above. The conditions noted are these: protein: recombinant; tags: 6xHis; label: Alexa Fluor 488 and Alexa Fluor 647 (labeled PCR primers); blunt.

One may read the Kd as the equilibrium constant for the complex coming apart. In series [1], “phosphorylated Δ350 SMARCAD1 (from UniProt Q9H4L7 351-1026) (domain or fragment)” showed a Kd of 495 nM. Further, the ATP hydrolysis rate with nucleosome as activator (1 μM SMARCAD1, 1 μM nucleosome; NADH-coupled assay) in series [2] came out at 118 nM/s.
Turning to “CGAGCCAGGCCTGAGAATCCGGTGCCGAGGCCGCTCAATTGGTCGTAGACAGCTCTAGCACCGCTTAAACGCACGTACGCGCTGTCCCCCGCGTTTTAACCGCCAAGGGGATTACTCCCTAGTCTCCAGGCACGTGTCAGATATATACATCCAGGCCTTGTGTCG (double strand) [165 bp 601 nucleosome (7N11)]”, the Kd in series [3] is 114 nM; in series [4] (dephosphorylated (CIP)), 71 nM; in series [5] (phosphorylated), 213 nM.
Consider “dephosphorylated Δ350 SMARCAD1 (from UniProt Q9H4L7 351-1026) (domain or fragment)”, for which the Kd in series [6] is 114 nM.
As to “CGAGCCAGGCCTGAGAATCCGGTGCCGAGGCCGCTCAATTGGTCGTAGACAGCTCTAGCACCGCTTAAACGCACGTACGCGCTGTCCCCCGCGTTTTAACCGCCAAGGGGATTACTCCCTAGTCTCCAGGCACGTGTCAGATATATACATCCAGGCCTTGTGTCG (double strand) [165 bp 601 DNA]”, the Kd was found to be 28 nM in series [4] and 49 nM in series [5].
With “phosphorylated wild type SMARCAD1 (from UniProt Q9H4L7 1-1026) (enzyme)”, the Kd in series [1] came to 151 nM. The ATP hydrolysis rate with nucleosome as activator (1 μM SMARCAD1, 1 μM nucleosome; NADH-coupled assay) in series [2] turned out to be 30 nM/s.

B1: 165 bp 601 DNA (dsDNA)
DNA 1: CGAGCCAGGCCTGAGAATCCGGTGCCGAGGCCGCTCAATTGGTCGTAGACAGCTCTAGCACCGCTTAAACGCACGTACGCGCTGTCCCCCGCGTTTTAACCGCCAAGGGGATTACTCCCTAGTCTCCAGGCACGTGTCAGATATATACATCCAGGCCTTGTGTCG
DNA 2: CGACACAAGGCCTGGATGTATATATCTGACACGTGCCTGGAGACTAGGGAGTAATCCCCTTGGCGGTTAAAACGCGGGGGACAGCGCGTACGTGCGTTTAAGCGGTGCTAGAGCTGTCTACGACCAATTGAGCGGCCTCGGCACCGGATTCTCAGGCCTGGCTCG
For the molecule B1, the figures for the Kd in series [7] and in series [8] were 26 ± 9 nM and 60 ± 18 nM, respectively.
